B1: BMP4 (ligand, human, UniProt P12644 293-408, looked up)
chain: SPKHHSQRARKKNKNCRRHSLYVDFSDVGWNDWIVAPPGYQAFYCHGDCPFPLADHLNSTNHAIVQTLVNSVNSSIPKACCVPTELSAISMLYLDEYDKVVLKNYQEMVVEGCGCR
B2: BMP10 (ligand, human, UniProt O95393 317-424, looked up)
chain: NAKGNYCKRTPLYIDFKEIGWDSWIIAPPGYEAYECRGVCNYPLAEHLTPTKHAIIQALVHLKNSQKASKACCVPTKLEPISILYLDKGVVTYKFKYEGMAVSECGCR
B3: BMP9 (ligand, human, UniProt Q9UK05 320-429, looked up)
chain: SAGAGSHCQKTSLRVNFEDIGWDSWIIAPKEYEAYECKGGCFFPLADDVTPTKHAIVQTLVHLKFPTKVGKACCVPTKLSPISVLYKDDMGVPTLKYHYEGMSVAECGCR
B4: BMP2 (ligand, human, UniProt P12643 283-396, looked up)
chain: QAKHKQRKRLKSSCKRHPLYVDFSDVGWNDWIVAPPGYHAFYCHGECPFPLADHLNSTNHAIVQTLVNSVNSKIPKACCVPTELSAISMLYLDENEKVVLKNYQDMVVEGCGCR
B5: Activin A, P08476 311-426 (ligand)
chain: GLECDGKVNICCKKQFFVSFKDIGWNDWIIAPSGYHANYCEGECPSHIAGTSGSSLSFHSTVINHYRMRGHSPFANLKSCCVPTKLRPMSMLYYDDGQNIIKKDIQNMIVEECGCS
B6: Activin AC, P55103 237-352 (ligand, human)
chain 1: B5 chain
chain 2: GIDCQGGSRMCCRQEFFVDFREIGWHDWIIQPEGYAMNFCIGQCPLHIAGMPGIAASFHTAVLNLLKANTAAGTTGGGSCCVPTARRPLSLLYYDRDSNIVKTDIPDMVVEACGCS
B7: Activin AB, P08476 311-426; P09529 293-407 (ligand)
chain 1: B5 chain
chain 2: GLECDGRTNLCCRQQFFIDFRLIGWNDWIIAPTSYYGNYCEGSCPAYLAGVPGSASSFHTAVVNQYRMRGLNPGTVNSCCIPTKLSTMSMLYFDDEYNIVKRDVPNMIVEECGCA
B8: Activin B, P09529 293-407 (ligand)
chain: B7 chain 2
B9: H4H10429P (antibody, human IgG4, V domains shown)
VH: QVQLVESGGGVVQPGRSLRLSCVASGFTVSSYGIHWVRQAPGKGLEWVSVIWYDGRNKDYADSVKGRFTISRDNSKNTVYLEMKGLRAEDTALYYCARDKTGDFDSWGQGTLVTVSS
VL: DIQMTQSPSSLSASVGDRVTITCRASQNINSFLSWYQQKPGKAPKFLIYDASSIQSGAPSRFSGSGSGTDFTLTISSLQPEDFATYYCQQSYSSPFTFGQGTKLEIK

These binders were tested against BMP receptor types I and II (on W-20-17/BRE-luc cells) (assay: cell-based or functional assay).

EC50 [M]; activation of W-20-17/BRE-luc luciferase reporter cells [M]	Binder
6.3e-11	B1
2.5e-09	B2
2.6e-10	B3
3.4e-11	B4

Each binder was assayed against activin Type II receptors (assay: cell-based or functional assay).

EC50, activation of A204/CAGAx12-Luc cells (Smad 2/3-luciferase reporter) [nM]	Binder
0.099	B5
4.4	B6
0.019	B7
0.047	B8

Each binder was assayed against hBMP7 (human) (UniProt P18075) (assay: SPR (Biacore 4000), captured on anti-human Fc, 200 nM ligand injected, 37 C).
Chain of hBMP7 (human) (P18075 293-431 limits assumed): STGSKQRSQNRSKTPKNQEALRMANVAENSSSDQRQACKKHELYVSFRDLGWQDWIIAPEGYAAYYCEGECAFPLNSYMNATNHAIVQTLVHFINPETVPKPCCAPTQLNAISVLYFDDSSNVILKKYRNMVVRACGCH

binding response (resonance units) for 200 nM ligand [RU]	Binder
9.2	B9
